Data from patent US20160222079A1 (GENOR BIOPHARMA, published 2016).

T1: GLP-1 receptor (GLP-1R) on the surface of mouse beta pancreatic tumor cells β-TC-6 (mouse, UniProt O35659 22-463)
T1 construct: whole, on cells; Endogenous receptor of the mouse cell line
T1 sequence (looked up): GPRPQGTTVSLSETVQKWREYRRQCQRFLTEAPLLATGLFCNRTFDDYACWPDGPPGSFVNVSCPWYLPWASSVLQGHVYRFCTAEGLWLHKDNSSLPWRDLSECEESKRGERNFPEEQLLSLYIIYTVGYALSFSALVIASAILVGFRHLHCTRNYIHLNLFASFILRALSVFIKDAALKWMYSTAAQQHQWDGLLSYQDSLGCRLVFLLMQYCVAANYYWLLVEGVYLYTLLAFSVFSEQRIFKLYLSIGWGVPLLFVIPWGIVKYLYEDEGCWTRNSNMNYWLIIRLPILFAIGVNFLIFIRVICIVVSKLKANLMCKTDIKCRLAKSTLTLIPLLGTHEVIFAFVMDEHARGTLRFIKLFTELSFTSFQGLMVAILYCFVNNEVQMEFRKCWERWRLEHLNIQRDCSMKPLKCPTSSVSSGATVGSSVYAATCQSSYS


target: T1, GLP-1 receptor (GLP-1R) on the surface …; assay: cell ELISA on fixed β-TC-6 cells, anti-human IgG-HRP detection

| binding result | Binder |
| --- | --- |
| binds | GLP-1-Fc-2 fusion protein (Fc fusion, also called GLP-1-Fc (IgG2)) HGEGTFTSDVSSYLEEQAAKEFIAWLVKGGGGGGGSGGGGSGGGGSERKCCVECPPCPAPPVAGPSVFLFPPKPKDTLMISRTPEVTCVVVDVSHEDPEVQFNWYVDGVEVHNAKTKPREEQFNSTFRVVSVLTVVHQDWLNGKEYKCKVSNKGLPAPIEKTISKTKGQPREPQVYTLPPSREEMTKNQVSLTCLVKGFYPSDIAVEWESNGQPENNYKTTPPMLDSDGSFFLYSKLTVDKSRWQQGNVFSCSVMHEALHNHYTQKSLSLSPG |
| binds | GLP-1-Fc-1 fusion protein (Fc fusion, also called GLP-1-Fc (IgG2)) HGEGTFTSDVSSYLEEQAAKEFIAWLVKGGGGGGGSGGGGSGGGGSVECPPCPAPPVAGPSVFLFPPKPKDTLMISRTPEVTCVVVDVSHEDPEVQFNWYVDGVEVHNAKTKPREEQFNSTFRVVSVLTVVHQDWLNGKEYKCAVSNKGLPAPIEKTISKTKGQPREPQVYTLPPSREEMTKNQVSLTCLVKGFYPSDIAVEWESNGQPENNYKTTPPMLDSDGSFFLYSKLTVDKSRWQQGNVFSCSVMHEALHNHYTQKSLSLSPGK |
| binds | GLP-1-Fc-3 fusion protein (Fc fusion, also called GLP-1-Fc (IgG2)) HGEGTFTSDVSSYLEEQAAKEFIAWLVKGGGGGGGSGGGGSGGGGSVECPPCPAPPVAGPSVFLFPPKPKDTLMISRTPEVTCVVVDVSHEDPEVQFNWYVDGVEVHNAKTKPREEQFNSTFRVVSVLTVVHQDWLNGKEYKCKVSNKGLPAPIEKTISKTKGQPREPQVYTLPPSREEMTKNQVSLTCLVKGFYPSDIAVEWESNGQPENNYKTTPPMLDSDGSFFLYSKLTVDKSRWQQGNVFSCSVMHEALHNHYTQKSLSLSPG |
